Measurements as given in patent US20020142964A1 (published 2002).
Changes are numbered by the printed parent chain. In names and notes the source's numbering stands.

T1: human G-CSF receptor (human, UniProt Q99062 25-836)
T1 sequence (looked up): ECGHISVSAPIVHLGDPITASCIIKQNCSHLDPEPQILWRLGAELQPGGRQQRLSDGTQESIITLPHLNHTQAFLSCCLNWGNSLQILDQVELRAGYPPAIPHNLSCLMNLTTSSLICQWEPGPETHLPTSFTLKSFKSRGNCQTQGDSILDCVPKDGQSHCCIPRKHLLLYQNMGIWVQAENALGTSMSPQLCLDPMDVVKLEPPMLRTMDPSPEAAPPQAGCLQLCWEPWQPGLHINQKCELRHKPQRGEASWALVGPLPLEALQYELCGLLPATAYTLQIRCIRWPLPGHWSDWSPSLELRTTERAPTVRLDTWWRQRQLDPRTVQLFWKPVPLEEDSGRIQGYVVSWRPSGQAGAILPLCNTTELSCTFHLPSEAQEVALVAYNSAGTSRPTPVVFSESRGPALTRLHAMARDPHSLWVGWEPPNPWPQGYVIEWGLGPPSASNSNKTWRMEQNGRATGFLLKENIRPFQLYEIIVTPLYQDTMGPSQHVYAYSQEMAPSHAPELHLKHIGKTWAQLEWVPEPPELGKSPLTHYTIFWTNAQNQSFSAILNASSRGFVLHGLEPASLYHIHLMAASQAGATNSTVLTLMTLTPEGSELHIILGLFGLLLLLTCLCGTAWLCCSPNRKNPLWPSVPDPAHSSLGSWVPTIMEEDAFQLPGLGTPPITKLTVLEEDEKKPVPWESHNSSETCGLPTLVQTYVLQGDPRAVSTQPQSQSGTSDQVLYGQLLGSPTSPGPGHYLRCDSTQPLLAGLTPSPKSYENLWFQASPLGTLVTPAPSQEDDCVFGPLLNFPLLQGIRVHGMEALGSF

B1: non-conjugated hG-CSF (Neupogen®) (ligand)
chain: TPLGPASSLPQSFLLKCLEQVRKIQGDGAALQEKLCATYKLCHPEELVLLGHSLGIPWAPLSSCPSQALQLAGCLSQLHSGLFLYQGLLQALEGISPELGPTLDTLQLDVADFATTIWQQMEELGMAPALQPTQGAMPAFASAFQRRAGGVLVASHLQSFLEVSYRVLRHLAQP
B2: Single-chain G-CSF dimer (K16R K34R K40R)copy 1,2 (ligand)
chain: TPLGPASSLPQSFLLRCLEQVRKIQGDGAALQERLCATYRLCHPEELVLLGHSLGIPWAPLSSCPSQALQLAGCLSQLHSGLFLYQGLLQALEGISPELGPTLDTLQLDVADFATTIWQQMEELGMAPALQPTQGAMPAFASAFQRRAGGVLVASHLQSFLEVSYRVLRHLAQPTPLGPASSLPQSFLLRCLEQVRKIQGDGAALQERLCATYRLCHPEELVLLGHSLGIPWAPLSSCPSQALQLAGCLSQLHSGLFLYQGLLQALEGISPELGPTLDTLQLDVADFATTIWQQMEELGMAPALQPTQGAMPAFASAFQRRAGGVLVASHLQSFLEVSYRVLRHLAQP
B3: Single-chain G-CSF dimer (K16R K34R K40R)copy 1,2 PEG5000 (ligand)
chain: B2 chain
modifications: SPA-PEG 5000 covalently linked to the available PEGylation sites; number and positions not stated
B4: Single-chain G-CSF dimer (K16R K34R K40R)copy 1,2 PEG12000 (ligand)
chain: B2 chain
modifications: SPA-PEG 12000 covalently linked to the available PEGylation sites; number and positions not stated
B5: Single-chain G-CSF dimer (ligand)
chain: B2 chain with R16K, R34K, R40K, R190K, R208K, R214K
B6: Single-chain G-CSF dimer PEG5000 (ligand)
chain: B2 chain with R16K, R34K, R40K, R190K, R208K, R214K
modifications: SPA-PEG 5000 covalently linked to the available PEGylation sites; number and positions not stated
B7: Single-chain G-CSF dimer PEG12000 (ligand)
chain: B2 chain with R16K, R34K, R40K, R190K, R208K, R214K
modifications: SPA-PEG 12000 covalently linked to the available PEGylation sites; number and positions not stated
B8: Single-chain G-CSF dimer PEG20000 (ligand)
chain: B2 chain with R16K, R34K, R40K, R190K, R208K, R214K
modifications: SPA-PEG 20000 covalently linked to the available PEGylation sites; number and positions not stated
B9: Single-chain G-CSF dimer (K16R)copy 1,2 (ligand)
chain: B2 chain with R34K, R40K, R208K, R214K
B10: Single-chain G-CSF dimer (K16R K34R)copy 1,2 (ligand)
chain: B2 chain with R40K, R214K
B11: Single-chain G-CSF dimer (K16R K34R)copy 1,2 PEG5000 (ligand)
chain: B2 chain with R40K, R214K
modifications: SPA-PEG 5000 covalently linked to the available PEGylation sites; number and positions not stated
B12: Single-chain G-CSF dimer (K16R K34R)copy 1,2 PEG12000 (ligand)
chain: B2 chain with R40K, R214K
modifications: SPA-PEG 12000 covalently linked to the available PEGylation sites; number and positions not stated

Experiments:
human G-CSF receptor [1] = target: T1, human G-CSF receptor; assay: cell-based or functional assay
human G-CSF receptor [2] = target: T1, human G-CSF receptor; assay: cell-based or functional assay; remark: listed apart in the source

| Binder | EC50, luciferase reporter assay in BaF3/hGCSF-R/pfos-lux cells (Primary assay 2) (human G-CSF receptor [1]) [nM] | Specific activity (% of Neupogen®), from EC50 in luciferase reporter assay (human G-CSF receptor [2]) |
| --- | --- | --- |
| B1 | 0.03 | – |
| B2 | – | 300 % of Neupogen® |
| B3 | – | 10 % of Neupogen® |
| B4 | – | 10 % of Neupogen® |
| B5 | – | 214 % of Neupogen® |
| B6 | – | 120 % of Neupogen® |
| B7 | – | 62 % of Neupogen® |
| B8 | – | 25 % of Neupogen® |
| B9 | – | 135 % of Neupogen® |
| B10 | – | 329 % of Neupogen® |
| B11 | – | 19 % of Neupogen® |
| B12 | – | 8 % of Neupogen® |
